Test results published in article PMC8476643 (Nature Communications, 2021).

B1: 7D6 monoclonal antibody (antibody, V domains shown)
VH: EVQLQQSGAELVRPGASVKLSCTASGFNIKDTYIHWVKQRPEQGLEWIGRIDPGDGDTEYDPSFQGKATITADTSSNTAYLELSSLTSEDTAVYYCTRFYDYVDYGMDYWGQGTSVTVSS
VL: DIQMTQSPASLSASVGETVTITCRASGNIHNYLAWYQQKQGKSPQLLVYNAKTLADGVPSRFSGSGSGTQYSLKINSLQPEDFGSYYCQHFWSTPPWTFGGGTKLEVK
notes: also called mAb 7D6; source: mouse hybridoma, ascites, purified (protein A agarose); copies: 2 + 2
B2: 6D6 monoclonal antibody (antibody, V domains shown)
VH: EVQLQQSGAELVKPGASVKLSCTTSGFNIIDTYMHWVKQRPEEGLEWIGGIDPVNGNSEYDPKFQDKATITADTSSNTAYLHLSRLTSEDTAVYYCASAHYYGSSSSFPYWGQGTLVTVSA
VL: DIVMTQSQKFMSTSVGDRVSVTCKASQNVGTHVAWYQQKPGQSPKALIYSASYRYSGVPDRFTGSGVGTDFTLTITNVQSEDLAEYFCQQYNSYFTFGSGTKLEIK
notes: also called mAb 6D6; source: mouse hybridoma, ascites, purified (protein A agarose); copies: 2 + 2

Key:
[1] = target: T1, SARS-CoV-2 two-proline stabilized S trimer (S-2P) (SARS-CoV-2 Wuhan-Hu-1 (GenBank …, UniProt P0DTC2, stabilised)); assay: SPR; settings: both partners purified
T1 construct: also called SARS-CoV-2 S-2P

[2] = target: T1, SARS-CoV-2 two-proline stabilized S …; assay: SPR; settings: both partners purified; remark: listed apart in the source

Binder | Kd [1] [nM] | Kd [2] [nM] | koff [2] [s⁻¹] | kon [2] [M⁻¹ s⁻¹]
B1 | 5.8 | 5.89 | 8.81e-05 | 15200
B2 | – | 0.03 | 4.2e-06 | 123000
